B1: SLC2A12 (parent)
chain: LTLVFFVQITGQPNILFYASTVLK

Variants of: B1
Assay: protein stability index of a GFP-peptide fusion (GPS, HEK-293T) (PSI 1-6); higher = more stable
Conditions: c terminus: a fixed tail appended
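Also: lentivirally expressed fusions sorted by FACS into six bins by GFP to DsRed ratio, PSI derived from sequencing read proportions per bin multiplied by bin number.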

Variant | protein stability index
LTLVFFVQITGQKNILFYASTVLK | 2.67
LTLVFFVQITGQHNILFYASTVLK | 3.43
LTLVFFVQITGQSNILFYASTVLK | 3.1
LTLVFFVQITGQRNILFYASTVLK | 3.44
LTLVFFVQITGQANILFYASTVLK | 3.85
LTLVFFVQITGQTNILFYASTVLK | 2.59
LTLVFFVQITGQQNILFYASTVLK | 2.05
LTLVFFVQITGQENILFYASTVLK | 3.73
LTLVFFVQITGQVNILFYASTVLK | 3.35
LTLVFFVQITGQGNILFYASTVLK | 5.6
LTLVFFVQITGQYNILFYASTVLK | 2.2
LTLVFFVQITGQINILFYASTVLK | 2.72
LTLVFHVQITGQPNILFYASTVLK | 3.02
LTLVFLVQITGQPNILFYASTVLK | 2.26
LTLVFAVQITGQPNILFYASTVLK | 2.9
LTLVFVVQITGQPNILFYASTVLK | 3.64
LTLVFWVQITGQPNILFYASTVLK | 2.85
LTLVFDVQITGQPNILFYASTVLK | 2.69
LTLVFTVQITGQPNILFYASTVLK | 2.35
LTLVFGVQITGQPNILFYASTVLK | 3.11
LTLVFQVQITGQPNILFYASTVLK | 4.18
LTLVFFVQITGSPNILFYASTVLK | 2.21
LTLVFFVQITGRPNILFYASTVLK | 2.64
LTLVFFVQITGTPNILFYASTVLK | 3.22

Variant | protein stability index
LTLVFFVQITGVPNILFYASTVLK | 2.91
LTLVFFVQITGCPNILFYASTVLK | 2.83
LTLVFFVQITGYPNILFYASTVLK | 2.33
LTLVFFVQITGNPNILFYASTVLK | 1.94
LTLVFFVQITGMPNILFYASTVLK | 3.94
LTLVFFVQITGDPNILFYASTVLK | 2.94
LTLVFFVQITGIPNILFYASTVLK | 2.73
LTLVFFVQITGLPNILFYASTVLK | 3.8
LTLVFFVQITGEPNILFYASTVLK | 2.25
LTLVFFVQITGKPNILFYASTVLK | 3.74
LTLVFFVQFTGQPNILFYASTVLK | 2.63
LTLVFFVQSTGQPNILFYASTVLK | 3.01
LTLVFFVQMTGQPNILFYASTVLK | 3.4
LTLVFFVQNTGQPNILFYASTVLK | 3.06
LTLVFFVQLTGQPNILFYASTVLK | 5.05
LTLVFFVQETGQPNILFYASTVLK | 4.04
LTLVFFVQHTGQPNILFYASTVLK | 4.79
LTLVFFVQGTGQPNILFYASTVLK | 2.45
LTLVFFVQTTGQPNILFYASTVLK | 3.18
LTLVFFVQATGQPNILFYASTVLK | 2.57
LTLVFFVQRTGQPNILFYASTVLK | 3.42
LTLVFFVQQTGQPNILFYASTVLK | 1.99
LTLVFFVQWTGQPNILFYASTVLK | 3.12
LTLVRFVQITGQPNILFYASTVLK | 3.67

Variant | protein stability index
LTLVYFVQITGQPNILFYASTVLK | 2.52
LTLVHFVQITGQPNILFYASTVLK | 1.93
LTLVNFVQITGQPNILFYASTVLK | 2.65
LTLVEFVQITGQPNILFYASTVLK | 2.7
LTLVPFVQITGQPNILFYASTVLK | 3.32
LTLVIFVQITGQPNILFYASTVLK | 2.45
LTLVVFVQITGQPNILFYASTVLK | 2.47
LTLVWFVQITGQPNILFYASTVLK | 3.59
LTLVTFVQITGQPNILFYASTVLK | 1.96
LTLVSFVQITGQPNILFYASTVLK | 1.66
LTLVQFVQITGQPNILFYASTVLK | 2.13
WTLVFFVQITGQPNILFYASTVLK | 2.65
RTLVFFVQITGQPNILFYASTVLK | 1.8
ETLVFFVQITGQPNILFYASTVLK | 2.27
PTLVFFVQITGQPNILFYASTVLK | 2.54
HTLVFFVQITGQPNILFYASTVLK | 2.7
VTLVFFVQITGQPNILFYASTVLK | 2.75
KTLVFFVQITGQPNILFYASTVLK | 2.96
ATLVFFVQITGQPNILFYASTVLK | 2.8
FTLVFFVQITGQPNILFYASTVLK | 4.63
NTLVFFVQITGQPNILFYASTVLK | 1.69
TTLVFFVQITGQPNILFYASTVLK | 3.79
DTLVFFVQITGQPNILFYASTVLK | 2.23
YTLVFFVQITGQPNILFYASTVLK | 2.85

Variant | protein stability index
CTLVFFVQITGQPNILFYASTVLK | 2.29
MTLVFFVQITGQPNILFYASTVLK | 3.03
STLVFFVQITGQPNILFYASTVLK | 3.18
ITLVFFVQITGQPNILFYASTVLK | 2.33
GTLVFFVQITGQPNILFYASTVLK | 4.08
LCLVFFVQITGQPNILFYASTVLK | 2.24
LNLVFFVQITGQPNILFYASTVLK | 3.71
LFLVFFVQITGQPNILFYASTVLK | 2.44
LGLVFFVQITGQPNILFYASTVLK | 2.15
LPLVFFVQITGQPNILFYASTVLK | 2.78
LELVFFVQITGQPNILFYASTVLK | 1.69
LYLVFFVQITGQPNILFYASTVLK | 3.04
LDLVFFVQITGQPNILFYASTVLK | 2.45
LSLVFFVQITGQPNILFYASTVLK | 3.26
LKLVFFVQITGQPNILFYASTVLK | 3.54
LMLVFFVQITGQPNILFYASTVLK | 3.56
LALVFFVQITGQPNILFYASTVLK | 2.61
LWLVFFVQITGQPNILFYASTVLK | 2.96
LLLVFFVQITGQPNILFYASTVLK | 3.88
LILVFFVQITGQPNILFYASTVLK | 4.67
LTLVFFVNITGQPNILFYASTVLK | 3.92
LTLVFFVAITGQPNILFYASTVLK | 4.06
